{"source": "the supplement of paper PMC10567573", "parents": {"B1": {"name": "BCL2L13 (parent)", "chain": "QSLDQEILLKVKTEIEEELKSLDK"}}, "data": [{"variants_of": "B1", "assay": "protein stability index of a GFP-peptide fusion (GPS, HEK-293T) (PSI 1-6); higher = more stable", "details": "c terminus: a fixed tail appended", "values": [{"variant": "QSLDQEILLKVKTEIEEELKTLDK", "note": "[S21T]", "protein stability index": 4.59}, {"variant": "QSLDQEILLKVKTEIEEELKCLDK", "note": "[S21C]", "protein stability index": 4.98}, {"variant": "QSLDQEILLKVKTEIEEELKYLDK", "note": "[S21Y]", "protein stability index": 4.25}, {"variant": "QSLDQEILLKVKTEIEEELKWLDK", "note": "[S21W]", "protein stability index": 3.57}, {"variant": "QILDQEILLKVKTEIEEELKSLDK", "note": "[S2I]", "protein stability index": 4.91}, {"variant": "QPLDQEILLKVKTEIEEELKSLDK", "note": "[S2P]", "protein stability index": 4.71}, {"variant": "QLLDQEILLKVKTEIEEELKSLDK", "note": "[S2L]", "protein stability index": 3.95}, {"variant": "QSLDQEILLKVKTEIEEEWKSLDK", "note": "[L19W]", "protein stability index": 4.46}, {"variant": "QSLDQEILLKVKTEIEEESKSLDK", "note": "[L19S]", "protein stability index": 5}, {"variant": "QSLDQEILLKVKTEIEEEFKSLDK", "note": "[L19F]", "protein stability index": 4.76}, {"variant": "QSLDQEILLKVKTEIEEECKSLDK", "note": "[L19C]", "protein stability index": 5.02}, {"variant": "QSLDQEILLKVKTEFEEELKSLDK", "note": "[I15F]", "protein stability index": 5.36}, {"variant": "QSLDQEILLKVKTECEEELKSLDK", "note": "[I15C]", "protein stability index": 5.12}, {"variant": "QSLDQEILLKVKTELEEELKSLDK", "note": "[I15L]", "protein stability index": 4.85}, {"variant": "QSLDQEILLKVKTEAEEELKSLDK", "note": "[I15A]", "protein stability index": 5.33}, {"variant": "QSLDQEILLKVKTEDEEELKSLDK", "note": "[I15D]", "protein stability index": 5.89}, {"variant": "QSLDQEILLKVKTEEEEELKSLDK", "note": "[I15E]", "protein stability index": 5.8}, {"variant": "QSLDQEILLKVKTEIEEHLKSLDK", "note": "[E18H]", "protein stability index": 4.05}, {"variant": "QSLDQEILLKVKTEIEESLKSLDK", "note": "[E18S]", "protein stability index": 4.61}, {"variant": "QSLDQEILLKVKTEIEEELSSLDK", "note": "[K20S]", "protein stability index": 5.33}, {"variant": "QSLDQEILLKVKTEIEEELMSLDK", "note": "[K20M]", "protein stability index": 4.48}, {"variant": "QSLDQEILLKVKTEIEEELCSLDK", "note": "[K20C]", "protein stability index": 4.9}, {"variant": "QSLDQEILLKVKTEIEEELPSLDK", "note": "[K20P]", "protein stability index": 5.35}, {"variant": "QSLDQEILLKVKTEIEEELQSLDK", "note": "[K20Q]", "protein stability index": 4.63}, {"variant": "QSLDQEILLKTKTEIEEELKSLDK", "note": "[V11T]", "protein stability index": 5.51}, {"variant": "QSLDQEILLKFKTEIEEELKSLDK", "note": "[V11F]", "protein stability index": 4.83}, {"variant": "QSLDQEILLKMKTEIEEELKSLDK", "note": "[V11M]", "protein stability index": 4.95}, {"variant": "QSLDQEILLKGKTEIEEELKSLDK", "note": "[V11G]", "protein stability index": 5.36}, {"variant": "QSLDQEILKKVKTEIEEELKSLDK", "note": "[L9K]", "protein stability index": 4.81}, {"variant": "QSLDQEILIKVKTEIEEELKSLDK", "note": "[L9I]", "protein stability index": 4.29}, {"variant": "QSLDQEILEKVKTEIEEELKSLDK", "note": "[L9E]", "protein stability index": 5.45}, {"variant": "QSLDQEILMKVKTEIEEELKSLDK", "note": "[L9M]", "protein stability index": 4.49}, {"variant": "QSLDQEILHKVKTEIEEELKSLDK", "note": "[L9H]", "protein stability index": 5.39}, {"variant": "QSLDQEILLKVKTEIEEELKSLDQ", "note": "[K24Q]", "protein stability index": 4.73}, {"variant": "QSLDQEILLKVKTEIEEELKSLDI", "note": "[K24I]", "protein stability index": 4.58}, {"variant": "QSLDQEILLKVKTEIEEELKSLDL", "note": "[K24L]", "protein stability index": 4.71}, {"variant": "QSLDQEILLKVKTEIEEELKSLDA", "note": "[K24A]", "protein stability index": 5.1}, {"variant": "QSLDQEILLKVKTEICEELKSLDK", "note": "[E16C]", "protein stability index": 3.97}, {"variant": "QSLDQEILLKVKTEIDEELKSLDK", "note": "[E16D]", "protein stability index": 5.17}, {"variant": "QSLDQEILLKVKTEIAEELKSLDK", "note": "[E16A]", "protein stability index": 4.6}, {"variant": "LSLDQEILLKVKTEIEEELKSLDK", "note": "[Q1L]", "protein stability index": 3.7}, {"variant": "WSLDQEILLKVKTEIEEELKSLDK", "note": "[Q1W]", "protein stability index": 3.55}, {"variant": "DSLDQEILLKVKTEIEEELKSLDK", "note": "[Q1D]", "protein stability index": 4.78}, {"variant": "RSLDQEILLKVKTEIEEELKSLDK", "note": "[Q1R]", "protein stability index": 4.64}, {"variant": "SSLDQEILLKVKTEIEEELKSLDK", "note": "[Q1S]", "protein stability index": 4.54}, {"variant": "QSLDQEILLKVKTEIEQELKSLDK", "note": "[E17Q]", "protein stability index": 4.56}, {"variant": "QSLDQEILLKVKTEIEFELKSLDK", "note": "[E17F]", "protein stability index": 3.54}, {"variant": "QSLDQEILLKVKTEIECELKSLDK", "note": "[E17C]", "protein stability index": 3.87}, {"variant": "QSLDQEILLKVKTEIEPELKSLDK", "note": "[E17P]", "protein stability index": 4.95}, {"variant": "QSLDQEILLKVKTEIETELKSLDK", "note": "[E17T]", "protein stability index": 4.1}, {"variant": "QSLDQEILLKVKREIEEELKSLDK", "note": "[T13R]", "protein stability index": 4.96}, {"variant": "QSLDQEILLKVKQEIEEELKSLDK", "note": "[T13Q]", "protein stability index": 3.67}, {"variant": "QSLDQEILLKVKDEIEEELKSLDK", "note": "[T13D]", "protein stability index": 4.44}, {"variant": "QSLDNEILLKVKTEIEEELKSLDK", "note": "[Q5N]", "protein stability index": 4.61}, {"variant": "QSLDLEILLKVKTEIEEELKSLDK", "note": "[Q5L]", "protein stability index": 2.99}, {"variant": "QSLDEEILLKVKTEIEEELKSLDK", "note": "[Q5E]", "protein stability index": 4.8}, {"variant": "QSLDQEILLKVKTEIEEELKSLEK", "note": "[D23E]", "protein stability index": 4.29}, {"variant": "QSLNQEILLKVKTEIEEELKSLDK", "note": "[D4N]", "protein stability index": 4.52}, {"variant": "QSLWQEILLKVKTEIEEELKSLDK", "note": "[D4W]", "protein stability index": 2}, {"variant": "QSLIQEILLKVKTEIEEELKSLDK", "note": "[D4I]", "protein stability index": 2.28}, {"variant": "QSLRQEILLKVKTEIEEELKSLDK", "note": "[D4R]", "protein stability index": 3.63}, {"variant": "QSLEQEILLKVKTEIEEELKSLDK", "note": "[D4E]", "protein stability index": 4.58}, {"variant": "QSLSQEILLKVKTEIEEELKSLDK", "note": "[D4S]", "protein stability index": 4.42}, {"variant": "QSLDQEIELKVKTEIEEELKSLDK", "note": "[L8E]", "protein stability index": 5.41}, {"variant": "QSLDQEIPLKVKTEIEEELKSLDK", "note": "[L8P]", "protein stability index": 5.17}, {"variant": "QSLDQEIGLKVKTEIEEELKSLDK", "note": "[L8G]", "protein stability index": 5.45}, {"variant": "QSLDQEICLKVKTEIEEELKSLDK", "note": "[L8C]", "protein stability index": 5.55}, {"variant": "QSLDQEIALKVKTEIEEELKSLDK", "note": "[L8A]", "protein stability index": 5.62}, {"variant": "QSLDQEILLAVKTEIEEELKSLDK", "note": "[K10A]", "protein stability index": 4.98}, {"variant": "QSLDQEILLSVKTEIEEELKSLDK", "note": "[K10S]", "protein stability index": 5.01}, {"variant": "QSLDQEILLDVKTEIEEELKSLDK", "note": "[K10D]", "protein stability index": 5.67}, {"variant": "QSLDQEILLQVKTEIEEELKSLDK", "note": "[K10Q]", "protein stability index": 5.35}, {"variant": "QSLDQEILLVVKTEIEEELKSLDK", "note": "[K10V]", "protein stability index": 3.53}, {"variant": "QSLDQEILLNVKTEIEEELKSLDK", "note": "[K10N]", "protein stability index": 5.21}, {"variant": "QSLDQEILLKVKTEIEEELKSFDK", "note": "[L22F]", "protein stability index": 5.37}, {"variant": "QSLDQEILLKVKTEIEEELKSIDK", "note": "[L22I]", "protein stability index": 4.49}, {"variant": "QSLDQEILLKVKTEIEEELKSSDK", "note": "[L22S]", "protein stability index": 5.41}, {"variant": "QSLDQEILLKVKTEIEEELKSEDK", "note": "[L22E]", "protein stability index": 4.58}, {"variant": "QSLDQEILLKVKTEIEEELKSPDK", "note": "[L22P]", "protein stability index": 5.67}, {"variant": "QSLDQEILLKVKTEIEEELKSDDK", "note": "[L22D]", "protein stability index": 5.74}, {"variant": "QSLDQEILLKVKTPIEEELKSLDK", "note": "[E14P]", "protein stability index": 4.31}, {"variant": "QSLDQEILLKVKTMIEEELKSLDK", "note": "[E14M]", "protein stability index": 3.7}, {"variant": "QSLDQEILLKVKTCIEEELKSLDK", "note": "[E14C]", "protein stability index": 4.03}, {"variant": "QSLDQEILLKVKTTIEEELKSLDK", "note": "[E14T]", "protein stability index": 4.46}, {"variant": "QSLDQEILLKVNTEIEEELKSLDK", "note": "[K12N]", "protein stability index": 5.97}, {"variant": "QSLDQEILLKVGTEIEEELKSLDK", "note": "[K12G]", "protein stability index": 5.65}, {"variant": "QSLDQEILLKVRTEIEEELKSLDK", "note": "[K12R]", "protein stability index": 4.77}, {"variant": "QSLDQEILLKVATEIEEELKSLDK", "note": "[K12A]", "protein stability index": 4.94}, {"variant": "QSGDQEILLKVKTEIEEELKSLDK", "note": "[L3G]", "protein stability index": 5.16}, {"variant": "QSEDQEILLKVKTEIEEELKSLDK", "note": "[L3E]", "protein stability index": 5.63}, {"variant": "QSVDQEILLKVKTEIEEELKSLDK", "note": "[L3V]", "protein stability index": 5.31}, {"variant": "QSADQEILLKVKTEIEEELKSLDK", "note": "[L3A]", "protein stability index": 5.71}, {"variant": "QSLDQLILLKVKTEIEEELKSLDK", "note": "[E6L]", "protein stability index": 3.58}, {"variant": "QSLDQDILLKVKTEIEEELKSLDK", "note": "[E6D]", "protein stability index": 4.83}]}]}
